From US20220363763A1 (ABL BIO, published 2022)
Changes are numbered by the printed parent chain. Values belong to the binder of their own block, whether it stands above or below them.

Experiments:
[1] = target: T1, recombinant his-tag human LAG3-ECD protein (human, UniProt P18627 23-450); experiment: SPR Biacore T200, capture method as Example 2.7
T1 construct: extracellular domain; not shown: his tag
T1 sequence (looked up): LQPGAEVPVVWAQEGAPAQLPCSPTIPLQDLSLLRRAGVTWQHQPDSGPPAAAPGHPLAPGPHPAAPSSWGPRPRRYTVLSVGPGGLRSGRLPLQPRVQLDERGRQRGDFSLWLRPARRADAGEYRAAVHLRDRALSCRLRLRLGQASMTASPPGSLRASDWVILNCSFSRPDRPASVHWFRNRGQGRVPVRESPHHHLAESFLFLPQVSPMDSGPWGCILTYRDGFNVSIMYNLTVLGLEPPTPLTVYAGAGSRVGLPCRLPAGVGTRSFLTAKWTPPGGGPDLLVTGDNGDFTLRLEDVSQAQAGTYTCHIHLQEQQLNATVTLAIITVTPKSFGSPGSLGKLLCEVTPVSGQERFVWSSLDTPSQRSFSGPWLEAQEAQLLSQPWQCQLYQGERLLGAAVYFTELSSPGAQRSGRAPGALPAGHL

[2] = target: T2, human LAG3 (construct not stated) (human, UniProt P18627 23-450, limits assumed); experiment: BLI Octet Red 96, affinity ranking
T2 construct: also called human LAG3 protein; antigen
T2 sequence (looked up): T1 sequence (looked up)

[3] = target: T3, human PD-L1-his taq protein (human, UniProt Q9NZQ7 19-239, limits assumed); experiment: SPR Biacore T200, antibody captured, PD-L1-his injected
T3 construct: also called recombinant PD-L1 protein; recombinant human PD-L1; not shown: his tag
T3 sequence (Q9NZQ7 19-239 limits assumed): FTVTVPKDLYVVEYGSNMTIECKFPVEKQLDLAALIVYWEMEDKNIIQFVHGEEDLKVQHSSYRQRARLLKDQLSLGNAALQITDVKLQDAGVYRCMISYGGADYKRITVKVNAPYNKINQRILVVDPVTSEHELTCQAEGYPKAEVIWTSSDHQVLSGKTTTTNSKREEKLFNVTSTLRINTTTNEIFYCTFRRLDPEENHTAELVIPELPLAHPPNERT
Method: The binding of the humanized antibodies to recombinant PD-L1 protein (human PD-L1-his taq) was tested by BIACORE™ using a capture method. The HL1210-3 mouse mAb were captured using anti-mouse Fc antibody coated on a CM5 chip. A series dilution of human PD-L1-his taq protein was injected over captured antibody for 3 mins at a flow rate of […]. The antigen was allowed to dissociate for 900 s. All the experiments were carried out on a Biacore T200.

B2: 147H-11 (antibody, V domains shown)
VH: EVQLVQSGAEVKKPGASVKVSCKASGYTFTNYWLGWVRQAPGQGLEWMGDIYPGGDYINYNEKFKGKATLTADTSISTAYMELSRLRSDDTAVYYCARPNLPGDYWGQGTTVTVSS
VL: DIVMTQSPLSLPVTPGEPASISCRSSKSLLHSNGITYLYWYLQKPGQSPQLLIYQVSNLASGVPDRFSGSGSGTDFTLKISRVEAEDVGVYYCAQNLELPWTFGGGTKVEIK
notes: Common light chain; human gamma 1 / kappa constant domains
Kd [2]: 42.2 nM
koff [2]: 0.00451 s⁻¹
kon [2]: 107000 M⁻¹ s⁻¹

B3: 147H 3669 (antibody, V domains shown)
VH: B2 VH with T28L, V37I, R38K, M48I, N59V
VL: B2 VL with G34A
Kd [1]: 8.8 nM
koff [1]: 0.0063 s⁻¹
kon [1]: 720000 M⁻¹ s⁻¹

B4: 147H-4 (antibody, V domains shown)
VH: B2 VH with E1Q
VL: B2 VL
notes: as for B2
Kd [2]: 39.8 nM
koff [2]: 0.00343 s⁻¹
kon [2]: 86200 M⁻¹ s⁻¹

B7: 147H 3794 (antibody, V domains shown)
VH: B2 VH with T28L, V37I, R38K, M48I, N59V
VL: B2 VL with G34A, N96Y
Kd [1]: 0.72 nM
koff [1]: 0.0027 s⁻¹
kon [1]: 3.7e+06 M⁻¹ s⁻¹

B8: 147H-12 (antibody, V domains shown)
VH: B2 VH with M48I
VL: B2 VL
notes: as for B2
Kd [2]: 55.2 nM
koff [2]: 0.00344 s⁻¹
kon [2]: 62300 M⁻¹ s⁻¹

B13: 147H 3808 (antibody, V domains shown)
VH: B2 VH with V37I, R38K, M48I, N59V, G103K, Y105H
VL: B2 VL with G34A, A94G, N96Y
Kd [1]: 0.75 nM
koff [1]: 0.0032 s⁻¹
kon [1]: 4.3e+06 M⁻¹ s⁻¹

B14: 147H-9 (antibody, V domains shown)
VH: B2 VH with K67R, A68V, L70M
VL: B2 VL
notes: as for B2
Kd [2]: 66.4 nM
koff [2]: 0.00448 s⁻¹
kon [2]: 67400 M⁻¹ s⁻¹

B16: 147H 3792 (antibody, V domains shown)
VH: B2 VH with V37I, R38K, M48I, N59V
VL: B2 VL with G34A, N96Y
Kd [1]: 0.59 nM
koff [1]: 0.0029 s⁻¹
kon [1]: 4.9e+06 M⁻¹ s⁻¹

B17: 147H-8 (antibody, V domains shown)
VH: B2 VH with K67R, A68V, L70M, A72R
VL: B2 VL
notes: as for B2
Kd [2]: 32.3 nM
koff [2]: 0.00533 s⁻¹
kon [2]: 165000 M⁻¹ s⁻¹

B18: 147H-10 (antibody, V domains shown)
VH: B2 VH with K67R, A68V
VL: B2 VL
notes: as for B2
Kd [2]: 82.3 nM
koff [2]: 0.00404 s⁻¹
kon [2]: 49100 M⁻¹ s⁻¹

B19: 147H-5 (antibody, V domains shown)
VH: B2 VH with E1Q, M48I
VL: B2 VL
notes: as for B2
Kd [2]: 31.3 nM
koff [2]: 0.003 s⁻¹
kon [2]: 95800 M⁻¹ s⁻¹

B20: 147H-3 (antibody, V domains shown)
VH: B2 VH with E1Q, K67R, A68V
VL: B2 VL
notes: as for B2
Kd [2]: 36.5 nM
koff [2]: 0.00338 s⁻¹
kon [2]: 92500 M⁻¹ s⁻¹

B21: 147H-2 (antibody, V domains shown)
VH: B2 VH with E1Q, K67R, A68V, L70M
VL: B2 VL
notes: as for B2
Kd [2]: 31.6 nM
koff [2]: 0.00314 s⁻¹
kon [2]: 99300 M⁻¹ s⁻¹

B22: 147H 3549 (antibody, V domains shown)
VH: B2 VH with V37I, R38K, M48I, G103K, Y105H
VL: B2 VL with G34A, N96Y, L99E
Kd [1]: 0.92 nM
koff [1]: 0.0068 s⁻¹
kon [1]: 7.4e+06 M⁻¹ s⁻¹

B24: 147H 3809 (antibody, V domains shown)
VH: B2 VH with T28L, V37I, R38K, M48I, N59V, G103K, Y105H
VL: B2 VL with G34A, N96Y
Kd [1]: 0.47 nM
koff [1]: 0.002 s⁻¹
kon [1]: 4.3e+06 M⁻¹ s⁻¹

B25: Hu1210-40 (antibody, V domains shown)
VH: EVQLVESGGGLVQPGGSLRLSCAASGFTFSSYDMSWVRQAPGKSLEWVATISEGGGYIYYSDSVKGRFTISRDNAKNSLYLQMNSLRDEDTAVYICAREFGKRYALDYWGQGTTVTVSS
VL: DIQMTQSPSSLSASVGDRVTITCKASQDVTPAVAWYQQKPGKAPKLLIYSTSSRYTGVPSRFSGSGSGTDFTFTISSLQPEDIATYYCQQHYTTPLTFGQGTKLEIK
notes: Hu1210 VH.4c x Vk.1; human gamma 1 / kappa constant domains
Kd [3]: 1.49 nM
koff [3]: 0.000131 s⁻¹
kon [3]: 87700 M⁻¹ s⁻¹

B26: Hu1210-42 (antibody, V domains shown)
VH: B25 VH with E53D, G54V
VL: B25 VL
notes: Hu1210 VH.4e x Vk.1; human gamma 1 / kappa constant domains
Kd [3]: 0.867 nM
koff [3]: 7.53e-05 s⁻¹
kon [3]: 86800 M⁻¹ s⁻¹

Continued, values first:

Kd [1]: 8.1 nM
koff [1]: 0.012 s⁻¹
kon [1]: 1.4e+06 M⁻¹ s⁻¹
B1: 147H 3421 (antibody, V domains shown)
VH: B2 VH with V37I, R38K, M48I, G103K, Y105H
VL: B2 VL with G34A

Kd [1]: 0.59 nM
koff [1]: 0.0029 s⁻¹
kon [1]: 4.9e+06 M⁻¹ s⁻¹
B5: 147H 3811 (antibody, V domains shown)
VH: B2 VH with T28L, V37I, R38K, M48I, N59V, G103K, Y105H
VL: B2 VL with G34A, S61T, A94G, N96Y

Kd [1]: 1.2 nM
koff [1]: 0.0025 s⁻¹
kon [1]: 2.1e+06 M⁻¹ s⁻¹
B6: 147H 3791 (antibody, V domains shown)
VH: B2 VH with V37I, R38K, M48I, N59V
VL: B2 VL with G34A, A94G

Kd [1]: 6.8 nM
koff [1]: 0.0054 s⁻¹
kon [1]: 790000 M⁻¹ s⁻¹
B9: 147H 3663 (antibody, V domains shown)
VH: B2 VH with T30E, V37I, R38K, M48I, N59V
VL: B2 VL with G34A, S61R

Kd [1]: 1.3 nM
koff [1]: 0.0023 s⁻¹
kon [1]: 1.8e+06 M⁻¹ s⁻¹
B10: 147H 3793 (antibody, V domains shown)
VH: B2 VH with T28L, V37I, R38K, M48I, N59V
VL: B2 VL with G34A, A94G

Kd [2]: 35.4 nM
koff [2]: 0.00386 s⁻¹
kon [2]: 109000 M⁻¹ s⁻¹
B11: 147H-1 (antibody, V domains shown)
VH: B2 VH with E1Q, K67R, A68V, L70M, A72R
VL: B2 VL

Kd [1]: 5.9 nM
koff [1]: 0.0045 s⁻¹
kon [1]: 770000 M⁻¹ s⁻¹
B12: 147H 3790 (antibody, V domains shown)
VH: B2 VH with V37I, R38K, M48I, G103K, Y105H
VL: B2 VL with G34A, S61T

Kd [1]: 0.98 nM
koff [1]: 0.0085 s⁻¹
kon [1]: 8.7e+06 M⁻¹ s⁻¹
B15: 147H 3550 (antibody, V domains shown)
VH: B2 VH with V37I, R38K, M48I, G103K, Y105H
VL: B2 VL with G34A, N96Y

Kd [1]: 1.4 nM
koff [1]: 0.0042 s⁻¹
kon [1]: 2.9e+06 M⁻¹ s⁻¹
B23: 147H 3508 (antibody, V domains shown)
VH: B2 VH with V37I, R38K, M48I, G103K, Y105H
VL: B2 VL with G34A, A94G
